Source: US20210347873A1 (SHANGHAI PHARMAEXPLORER, published 2021)

B1: 111D10D6G3 (antibody, V domains shown)
VH: QVQLQQPGAELVKPGASVKMSCKASGYTFTRHWITWVKQRPGQGLEWIGDIFPGSGSINYNEKFKSEATLTVEKSSSTAYMQLSSLTSEDSAVYYCARGDVDVWGTGTTVTVSS
VL: DIQMTQSPSSLSASLGERVSLTCRASQEIRGYLSWLQQKPNGTIKRLIYAASTLDSGVPKRFSATRSGSDFSLTISSLESEDFADYYCLQYASYPFTFGSGTKLEIK
notes: Mouse hybridoma monoclonal antibody purified on Protein G
B2: 111D10D6G3 (antibody, V domains shown)
VH: QVQLQQPGAELVKPGASVKMSCKASGYTFTRHWITWVKQRPGQGLEWIGDIFPGSGSINYNEKFKSEATLTVEKSSSTAYMQLSSLTSEDSAVYYCARGDVDVWGTGTTVTVSS
VL: DIQMTQSPSSLSASLGERVSLTCRASQEIRGYLSWLQQKPNGTIKRLIYAASTLDSGVPKRFSATRSGSDFSLTISSLESEDFADYYCLQYASYPFTFGSGTKLEIK
notes: Mouse hybridoma antibody purified on Protein G
B3: L9G7 (antibody, human IgG1, V domains shown)
VH: QIQLVQSGAEVKKPGASVKVSCKASGYTFTSYGISWVRQAPGQGLEWMGWISAYNGNTNYAQKLQGRVTMTTDTSTSTAYMELRSLRSDDTAVYYCARTYYDILTGYYYYGMDVWGQGTTVTVSS
VL: EIVLTQSPGTLSLSPGERATLSCRTSQSVDTYLAWYQQKPGQAPRLLIYDASNRATGIPARFSGSGSGTDFTLTISSLEPEDFAVYYCQQRSNWPLTFGGGTKVEIK
B4: 97A3C2H4 (antibody, V domains shown)
VH: EVKLVESGGGLVQPGGSLKLSCAASGFTFSTYTMSWVRQTPEKRLEWVAYISYGGGSTSYPDTVKGRFTISRDNAKNTLYLQMSSLKSEDTAIYYCTRHVTVVENSMDYWGQGTSVTVSS
VL: DILLTQSPDILSVSPGERVSFSCRASQSIGTSIHWYQQRTNGSPRLLIKYVSESFSGTPSRFSGSGSGTAFTLTINSVESEDIADYYCQQTHSWPWTFGGGTKLEIK
notes: as for B1
B5: 97A3C2H4 (antibody, V domains shown)
VH: EVKLVESGGGLVQPGGSLKLSCAASGFTFSTYTMSWVRQTPEKRLEWVAYISYGGGSTSYPDTVKGRFTISRDNAKNTLYLQMSSLKSEDTAIYYCTRHVTVVENSMDYWGQGTSVTVSS
VL: DILLTQSPDILSVSPGERVSFSCRASQSIGTSIHWYQQRTNGSPRLLIKYVSESFSGTPSRFSGSGSGTAFTLTINSVESEDIADYYCQQTHSWPWTFGGGTKLEIK
notes: as for B2
B6: 8E7D9C7F5 (antibody, V domains shown)
VH: QVQLQQSGVELARPGASVKLSCKASGYTFTSYGISWVKQRTGQALEWIGEIYPRSGNTYYNEKFKGKATLTADKSSSTAYMELRSLTSEDSAVYFCARSGPITTLVATDYGMDYWGQGTSVTVSS
VL: DIVLTQSPASLAVSLGQRATISCRASKSVSTSSYSYMHWYQQKPGQPPKLLIKFASNLESGVPARFSGSGSGTDFTLNIHPVEEEDAATYYCQHSREFPYTFGGGTKLEIK
notes: as for B1
B7: L1D12 (antibody, human IgG1, V domains shown)
VH: QVQLVQSGGGLVQPGGSLRLSCAASGFTVSSNYMSWVRQAPGKGLEWVSVIYSGGSTYYADSVKGRFTISRDNSKNTLYLQMNSLRAEDTAVYYCARGFHDILTGYGMDVWGQGTTVTVSS
VL: SSELTQDPAVSVALGQTVRITCQGDSLRNYYAGWYQQKPGQAPVLVIYGKNNRPSGIPDRFSGSSSGNTASLTITGTQAEDEADYYCSSRDNSGTHLVEFGGGTKLTVL
notes: also called LID12

Legend:
biotinylated hBLyS-ECD [1] = biological target: T1, biotinylated hBLyS-ECD (human, UniProt Q9Y275 134-285, biotinylated with Biotin-X-X-NHS (molar ratio 7:1); sites not stated); test: blocking ELISA: biotinylated hBLyS-ECD on coated BAFF R, antibody 0.16 nM
T1 construct: also called biotinylated immunogen; BLyS protein
T1 sequence (Q9Y275 134-285): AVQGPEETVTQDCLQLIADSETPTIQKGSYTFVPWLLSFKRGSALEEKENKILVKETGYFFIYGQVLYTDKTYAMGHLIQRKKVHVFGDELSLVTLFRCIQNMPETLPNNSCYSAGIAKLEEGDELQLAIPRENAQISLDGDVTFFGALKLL
Experimental: (§1) BAFF R (purchased from R & D Systems) was aliquoted into 96-well ELISA plate at 50 ng per well, and the plate was sealed with plastic film and incubated overnight at 4° C. On the next day the plate was washed four times with the plate washing buffer [PBS buffer containing 0.05% (v/v) Tween20] and added with blocking solution [PBS buffer containing 0.05% (v/v) Tween20 and 1% (w/w) BSA], then blocked for 1 hour at room temperature. The blocking solution was removed and 50 μL per well of the lead antibodies prepared in Embodiment 1 and 2 were added followed by the addition of 50 μL per well of the biotinylated hBLyS-ECD prepared in Embodiment 2. After incubation for 1 hour at 37° C., the plate was washed four times with the plate washing buffer [PBS buffer containing 0.05% (v/v) Tween20]. 100 μL per well of HRP-labeled (horseradish peroxidase) avidin (purchased from Sigma) was added and incubated at 37° C. for 1 hour. The plate was then washed four times with the plate washing buffer [PBS buffer containing 0.05% (v/v) Tween20]. 100 μL of TMB substrate was aliquoted into each well and after incubation for 5 minutes at room temperature, then 100 μL of stop solution (1.0 N HCl) was aliquoted into each well. A₄₅₀ₙₘ values were read with an ELISA plate reader (SpectraMax 384plus, Molecular Device) and the results were shown in FIGS. 9A-9B and Table 15. It was shown in Table 15 that the binding of BLyS protein to its receptor BAFF R could be blocked by the BLyS antibody.

biotinylated hBLyS-ECD [2] = biological target: T1, biotinylated hBLyS-ECD; test: blocking ELISA: biotinylated hBLyS-ECD on coated BAFF R, antibody 20 nM
Experimental: as §1

biotinylated hBLyS-ECD [3] = biological target: T1, biotinylated hBLyS-ECD; test: blocking ELISA: biotinylated hBLyS-ECD on coated BAFF R, antibody 100 nM
Experimental: as §1

biotinylated hBLyS-ECD [4] = biological target: T2, biotinylated hBLyS-ECD (human, UniProt Q9Y275 134-285, biotinylated with Biotin-X-X-NHS (molar ratio 7:1), sites not stated); test: ELISA, biotinylated hBLyS-ECD captured on streptavidin; antibody 2.67 nM
T2 construct: The hBLyS-ECD of Embodiment 1 after biotinylation (Embodiment 2); also called biotinylated immunogen; BLyS protein; not shown: His tag of the pCPC vector
T2 sequence (Q9Y275 134-285): as above
Experimental: (§2) Streptavidin was first diluted to a final concentration of 1.0 μg/mL with PBS, and then 50 μL of diluted streptavidin per well was aliquoted into 96-well ELISA plate, which was subsequently sealed with plastic film and incubated at 4° C. overnight. On the next day the plate was washed four times with the plate washing buffer [PBS buffer containing 0.05% (v/v) Tween20] and added with the blocking solution [PBS buffer containing 0.05% (v/v) Tween20 and 1% (w/w) BSA] and blocked for 2 hours at 37° C. The blocking solution was removed, the biotinylated hBLyS-ECD prepared in Embodiment 2 was diluted with PBS to a final concentration of 50 ng/mL and then aliquoted into the 96-well ELISA plate at 50 μL per well and incubated for 1 hour at 37° C. After rinsing the plate four times with the plate washing buffer [PBS buffer containing 0.05% (v/v) Tween20], 100 μl of the purified lead antibody harvested in Embodiment 1 and 2 was pipetted into each well. After incubation for 1 hour at 37° C., the plate was rinsed four times with the plate washing buffer [PBS buffer containing 0.05% (v/v) Tween20]. HRP-labeled (horseradish peroxidase) secondary antibody (purchased from Sigma) was added in and incubated at 37° C. for 1 hour. The plate was then rinsed four times with the plate washing buffer [PBS buffer containing 0.05% (v/v) Tween20]. 100 μL of TMB substrate was aliquoted into each well and after incubation for 5 minutes at room temperature, 100 μL of stop solution (1.0 N HCl) was aliquoted into each well. A₄₅₀ₙₘ values were read via an ELISA plate reader (SpectraMax M5e purchased from Molecular Devices) and the results were shown in FIGS. 5A-5B and Table 10.

biotinylated hBLyS-ECD [5] = biological target: T2, biotinylated hBLyS-ECD; test: ELISA, biotinylated hBLyS-ECD captured on streptavidin; antibody 0.0213 nM
Experimental: as §2

biotinylated hBLyS-ECD [6] = biological target: T2, biotinylated hBLyS-ECD; test: ELISA, biotinylated hBLyS-ECD captured on streptavidin; antibody 66.7 nM
Experimental: as §2

Binder	OD450 nm (biotinylated hBLyS-ECD [1]) [OD450 nm]	OD450 nm (biotinylated hBLyS-ECD [2]) [OD450 nm]	OD450 nm (biotinylated hBLyS-ECD [3]) [OD450 nm]	OD450 nm (biotinylated hBLyS-ECD [4])	OD450 nm (biotinylated hBLyS-ECD [5])	OD450 nm (biotinylated hBLyS-ECD [6])
B1	0.911	0.616	0.605	–	–	–
B2	–	–	–	1.78	0.194	1.94
B3	–	–	–	1.71	0.181	1.81
B4	0.816	0.125	0.107	–	–	–
B5	–	–	–	2.75	0.283	2.98
B6	0.61	0.133	0.11	–	–	–
B7	–	–	–	1.65	0.262	1.75
